Source: publication doi:10.1101/2023.07.21.550003 (bioRxiv, 2023)

Target: T1, canonical HER2, extracellular region (residues 22-587) (human, UniProt P04626)
T1 construct: HER2 (ERBB2), human, extracellular region spanning residues 22-587, amplified from the complete cDNA clone BC156755 / P04626; Cloned in a modified p3XFLAG-CMV-25 vector; also called ERBB2; human epidermal growth factor receptor 2; source: HEK293F, transfected, purified from supernatant (HisTrap, Superdex200); not shown: FLAG, N-terminal, kept
Experiment: flow cytometry on cells; yeast clones displaying scFv (anti-c-myc-FITC for display) incubated with purified Flag-tagged HER2 variants at room temperature for 2 hours; anti-Flag iFluor 647
Conditions: one partner purified

- binding result: binds
B1: Clone 32 (scFv displayed on yeast) (scFv, V domains shown)
VH: EVQLVESGGGLVQPGGSLRLSCAASGFTFGEYTMDWVRQAPGKGLEWVADVNPNSGGSIYNKRFKGRFTLSVDRSKNTLYLQMNSLRAEDTAVYYCARNLGPSFYFDYWGQGTLVTVSS
VL: DIQMTQSPSSLSASVGDRVTITCKASQDVSIGVAWYQQKPGKAPKLLIYSASYRYTGVPSRFSGSGSGTDFTLTISSLQPEDFATYYCQQYYIYPYTFGQGTKVEIK
notes: as the heavy-chain variable region of m4 (Pertuzumab, PDB 1S78), with the changes of clone 32 among the 14 library positions; linker: three repeats of G4S between the VH and VL; as the light-chain variable region of m4 (Pertuzumab, PDB 1S78); The methods also say the library was built 'based on the AAL160 template antibody'; source: S. cerevisiae EBY100, yeast surface display (pCTCON2)
